Measured values as given in the supplement of paper PMC9170038.

Test system: MS2 coat protein
Experiment: apparent KD of MS2 coat protein; designed switch direction (-1 OFF switch, 1 ON switch): -1; higher = weaker reporter binding
Outline: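 Stalled E. coli RNA polymerase transcribed designed RNA switches on Illumina chips, which were then titrated with SNAP-549-labelled MS2 coat protein, doubling from 0.7 or 1.5 nM to 3 µM. Steps lasted from 0.8–1.5 h at the lowest concentration to 10–20 min at the highest. The apparent KD is each design's median over clusters of curve-fitted normalised fluorescence.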

[1] = Eterna round: R95, input ligand: FMN 200 uM
[2] = Eterna round: R95, input ligand: microRNA oligo, concentration not stated
[3] = Eterna round: R95, input ligand: none
[4] = input ligand: microRNA oligo, concentration not stated

Sequence	apparent KD of MS2 coat protein (input ligand: FMN 200 uM) [µM]	apparent KD of MS2 coat protein (input ligand: none) [µM]	apparent KD of MS2 coat protein [1] [µM]	apparent KD of MS2 coat protein [2] [µM]	apparent KD of MS2 coat protein [3] [µM]	apparent KD of MS2 coat protein [4] [µM]
ACCUCACAUGAGGAUCACCCAUGUCAGGAUAUCUUUUAAAACACCAAUCGUGUCGCUGAGAGAAGGGACAUUAA [EX1 #23] (Eterna round: R97, puzzle: Exclusion 1)	0.0205	0.016	–	–	–	–
ACCUCACAUGAGGAUCACCCAUGUCAGGAUAUGUACCUGGCCAAGACAAAAGCCAGAAGCAGAAGGGACUGCGG [Enrionerdi] (puzzle: Exclusion 1)	–	–	0.0725	0.129	0.0936	–
ACCUGGUGAGGAUAUGUUGGGAAUGAUCCUUUCGGAUUGACACAGAAGGCACAUGAGGAUCACCCAUGUGGGUG [Eternabot (L1) Solution 70] (Eterna round: R97, puzzle: Exclusion 4)	0.332	0.591	–	–	–	–
ACGAGCAGACGGAGAUCCAACAUGAGGAUCACCCAUGUCUGGAAAGCUUUUUGCUUGUCUUAUCCUCCUCUGUUAGC [Design #10] (Eterna round: R97, puzzle: Sensor, turn-off variant 1)	0.0124	0.0119	–	–	–	–
ACGAUGACAGAAAGAAGUCAAAAGACAUGAGGAUCACCCAUGUAGGAUAUGGCUACGAAAAGUAGUCAGAAGGACUUGUCAUCA [Omei Exc(NG) 3 Av2] (Eterna round: R96, puzzle: Exclusion NG 3)	0.0131	0.0143	–	–	–	0.00948
ACGAUGACCGAAAGAUGUCAAAAGACAUGAGGAUCACCCAUGUAGGAUAUGGCUACGAAAAGUAGUCAGAAGGACAUGUCAUCA [Omei Exc(NG) 3 A] (Eterna round: R96, puzzle: Exclusion NG 3)	0.0151	0.0148	–	–	–	0.0123
ACGCCGCAAGGAUAUACUUGCGGUGAUGUUCGAGUUCUUCUACUUGAGGAUCACCCAAGUAGAAGGUGCGAUGG [jl-ex2.4.61 ViennaUCT mod] (Eterna round: R97, puzzle: Exclusion 2)	0.0137	0.0138	–	–	–	–
ACGGGUAAGUAAGGAUAUCCAACAGGCUGAUUUCAGUCUGAACAUGAGGAUCACCCAUGUGGGUGGGAGAAGGUACUCUCCCGC [Atbienarza] (Eterna round: R96, puzzle: Exclusion NG 2)	0.107	0.114	–	–	–	0.0863
ACGUACAAGCCGAUCCUAAACAUGAGGAUCACCCAUGUGCUCGUUUUGUAAAGUACUAUCACGAAAGUGAUAGUACA (Eterna round: R97, puzzle: Sensor, turn-off variant 1)	0.114	0.122	–	–	–	–
ACGUGAUAUCUGUCGGUGGACAUGAGGAUCACCCAUGUAAGCUUUCUGCUCGUCUUAUAACCCGGUGACAGACCUUC [Diteerquus] (puzzle: Sensor v3, turn-off variant 1)	–	–	0.0453	0.31	0.0569	–
ACUAGAUGAGGAUAUACACAUUUUAGUGUUCCUCUAGAUUAACAUGAGGAUCACCCAUGUAGAAGGCAUCAAUU [Exclusion 2 - 11] (Eterna round: R96, puzzle: Exclusion 2)	0.294	0.063	–	–	–	0.0528
ACUAGAUGAGGAUAUACACAUUUUAGUGUUCCUCUAGAUUAACAUGAGGAUCACCCAUGUAGAAGGCAUCAAUU [Exclusion 2 - 11] (puzzle: Exclusion 2)	–	–	–	0.0578	–	–
ACUAGGAGAUUAGGAUAUCUAUCUCACAUGAGGAUCACCCAUGUAUAAGCGUCCUAAAGGUGGAUGGAGAAGGGAUGUCCGAAG [Eternabot solution 13] (Eterna round: R96, puzzle: Exclusion NG 2)	0.0141	0.0175	–	–	–	0.0138
ACUAGGCGAGGAUAUACAUGCUUAACGCAGGAAAAGCUGCGACAUGAGGAUCACCCAUGUAGAAGGCGCAAAUA [Xege] (Eterna round: R96, puzzle: Exclusion 2)	0.0781	0.02	–	–	–	0.0146
ACUAGGCGAGGAUAUACAUGCUUAACGCAGGAAAAGCUGCGACAUGAGGAUCACCCAUGUAGAAGGCGCAAAUA [Xege] (puzzle: Exclusion 2)	–	–	–	0.0154	–	–
ACUCCUCCUGUUAGGAUAUGCAUCGGGCUUCCGCAGCAGAAGGAACAUGAGGAUCACCCAUGUCAAAUAAAAUC (Eterna round: R97, puzzle: Brourd's mod of Exclusion 4)	0.243	0.0263	–	–	–	–
ACUCCUCCUGUUAGGAUAUGCAUCGGGCUUCCGCAGCAGAAGGAACAUGAGGAUCACCCAUGUCAAAUAAAAUC [Inxebexe] (Eterna round: R96, puzzle: Brourd's mod of Exclusion 4)	0.153	0.0269	–	–	–	0.0207

Sequence	apparent KD of MS2 coat protein (input ligand: FMN 200 uM) [µM]	apparent KD of MS2 coat protein (input ligand: none) [µM]	apparent KD of MS2 coat protein [1] [µM]	apparent KD of MS2 coat protein [2] [µM]	apparent KD of MS2 coat protein [3] [µM]	apparent KD of MS2 coat protein [4] [µM]
ACUCCUCCUGUUAGGAUAUGCAUCGGGCUUCCGCAGCAGAAGGAACAUGAGGAUCACCCAUGUCAAAUAAAAUC [Inxebexe] (puzzle: Brourd's mod of Exclusion 4)	–	–	–	0.0189	–	–
ACUGGAGCAGGAUAUACAUUCGUGCUUCGGCACGUAAGAUCACAUGAGGAUCACCCAUGUAGAAGGGCUCCAGU [E2/5-D1] (Eterna round: R97, puzzle: Exclusion 2)	0.97	0.122	–	–	–	–
ACUGUUGCAGGAUAUAUGGUGCUAGACAUGAGGAUCACCCAUGUAGGCCUUGUCUAGCAGGUAGAAGGGCACCCAC [Eternabot (L1) Solution 94] (Eterna round: R97, puzzle: Exclusion 5)	0.503	0.224	–	–	–	–
ACUUACUGAGGAUAUACAUAGAUUUACAUGAGGAUCACCCAUGUUCCUCUAUGUAUAAAUGUAGAAGGCAGAAGUU [Mat - Exclusion 5 - JL Mod - D56] (Eterna round: R97, puzzle: Exclusion 5)	0.107	0.0215	–	–	–	–
ACUUAUAGAGGAUAUACAGAAUAUUACAUGAGGAUCACCCAUGUUCUUCAAUGUAUAUAUGUAGAAGGCUAAGGAA [JL-ex5-4.22 Malcolm mod] (Eterna round: R97, puzzle: Exclusion 5)	0.252	0.0888	–	–	–	–
ACUUAUCAUGUAGGAUAUGCGUGGCGAAGCUAUGCAGAAGGACAUGAGGAUCACCCAUGUUUUAGCGUCUGCGUACAGAUGCGU [JL ENG1 1.45] (Eterna round: R96, puzzle: Exclusion NG 1)	–	–	–	–	–	0.039
AGAAAGCAAGGAUAUACGAGGAGAAGGUGGAAAGUUAAAGGACAUGAGGAUCACCCAUGUAGAAGGUGCGAGAA [JR_Exclu2_Sub043] (puzzle: Exclusion 2)	–	–	0.0793	0.0462	0.0554	–
AGAAAGGAAGGAUAUACAAGAAAGCCGGGCAACGUCUCAGAACAUGAGGAUCACCCAUGUAGAAGGUCCAGGAA [Tisoiste] (puzzle: Exclusion 2)	–	–	0.0923	0.0326	0.0328	–
AGAACAUCAGGAUAUCCAUGACACUACAUGAGGAUCACCCAUGUGAAUCUCCUCAAGGCGGGAGAAGGGAUGUUUG [Eternabot (L1) Solution 34] (Eterna round: R97, puzzle: Exclusion 5)	0.272	0.0867	–	–	–	–
AGACACUGAGGAUAUACAUGAGGAUCACCCAUGUAUGGGAAAUACGAAUGUAUUAGUUGUAGAAGGUGGUGUCG [Eternabot (L1) Solution 10] (Eterna round: R97, puzzle: Exclusion 3)	0.183	0.199	–	–	–	–
AGACACUUAGGAUAUCAGGCAAUGCACAUGAGGAUCACCCAUGUGGUCUUGGUCCGGGACUGAGAAGGAAGAGUCC [EX5 B.10] (Eterna round: R97, puzzle: Exclusion 5)	0.0201	0.019	–	–	–	–
AGACAGUCAGGAUAUACAUGAGGAUCACCCAUGUUAAGAAAAGAAAGGGCAGGAAGAGGUAGAAGGGACAAGAA [JR_Exclu3_Sub032] (puzzle: Exclusion 3)	–	–	0.0288	0.0285	0.0328	–
AGACUGCUGCGAGGAUAUACAUGAGGAUCACCCAUGUUUUCCUGUGAGGCAUAGCCUCACAGGAUGUAGAAGGCGCAGUAGUCA [Mat - Exclusion NG 2 - Mod of JL - D30] (Eterna round: R96, puzzle: Exclusion NG 2)	0.0138	0.0119	–	–	–	0.0112
AGAGAAUACUCAGGAUAUCUGAAUAGAAAGAGAAGAGAAGGGAGACAUGAGGAUCACCCAUGUGAAGUCUUGAGGCUGCAUGGA [Prohibition 25 - Jieux - Exclusion NG 1] (Eterna round: R96, puzzle: Exclusion NG 1)	0.0835	0.106	–	–	–	0.145
AGAGAAUAGUCAGGAUAUGUGAAUAGAUAGAGAACAGAAGGGACACAUGAGGAUCACCCAUGUGAAGUCUUGAGGCUGCGUGGA [Prohibition 21 - Jieux - Exclusion NG 1] (Eterna round: R96, puzzle: Exclusion NG 1)	0.0221	0.0203	–	–	–	0.0175
AGAGAGUCAGGAUAUCGGAGGGCGAGGAGAGGAGAGAGAGACGAGAAGGGACAUGAGGAUCACCCAUGUAGGUG [JR_Exclusion4)Sub018] (puzzle: Exclusion 4)	–	–	0.197	0.268	0.4	–
